In publication PMC11920956:

B1: L1, peptide model of the Core CFeoB region of FeoB (residues 477-496) (Escherichia coli K12) (peptide)
chain: IMRGEATPFVMELPVYHVPH
B2: L2, peptide model of the ExxE motif of the NFeoB domain of FeoB (residues 38-43) (Escherichia coli K12) (peptide)
chain: VERKEG

Tests used:
Tyr16 (position 16, …-) = experiment: potentiometry; settings: 298 K; 0.1 M NaClO4; none (4 mM HClO4, 0.5 mM peptide); free peptide, no metal
[1] = target: Lys4 (position 4, --VERKEG---); experiment: potentiometry; settings: 298 K, 0.1 M NaClO4

Protein	pKa (Tyr16 (position 16, …-))	pKa ([1]; none (4 mM HClO4, 0.5 mM peptide), free peptide, no metal)	pKa ([1]; none (4 mM HClO4, 0.5 mM peptide, Mohr's salt as Fe(II) source), Fe(II) present, Fe(II):L = 1:1.1, step [FeLH-3]2- to [FeLH-4]3- of the 1:1 Fe(II):L2 complex)
B1	9.67	–	–
B2	–	9.92	9.87
